B1: Mpv17-like protein (Mus musculus), Q99MS3-1 (parent)
chain: MASWWRAFPQAARRYPWPTNVLLYAGLFSAGDALQQRLRGGPADWRQTRRVATLAVTFHGNFNYVWLRLLERALPGRAPRTVLAKVLCDQTVGGPIALSAFYVGMSVLQGKDDIFLDLKQKFWNTYKSGLMYWPFVQLTNFSLVPVHWRTAYTGLCAFLWATFLCFSQQSGDGTLQSIFIFLRRKEASDKSPEK
partner: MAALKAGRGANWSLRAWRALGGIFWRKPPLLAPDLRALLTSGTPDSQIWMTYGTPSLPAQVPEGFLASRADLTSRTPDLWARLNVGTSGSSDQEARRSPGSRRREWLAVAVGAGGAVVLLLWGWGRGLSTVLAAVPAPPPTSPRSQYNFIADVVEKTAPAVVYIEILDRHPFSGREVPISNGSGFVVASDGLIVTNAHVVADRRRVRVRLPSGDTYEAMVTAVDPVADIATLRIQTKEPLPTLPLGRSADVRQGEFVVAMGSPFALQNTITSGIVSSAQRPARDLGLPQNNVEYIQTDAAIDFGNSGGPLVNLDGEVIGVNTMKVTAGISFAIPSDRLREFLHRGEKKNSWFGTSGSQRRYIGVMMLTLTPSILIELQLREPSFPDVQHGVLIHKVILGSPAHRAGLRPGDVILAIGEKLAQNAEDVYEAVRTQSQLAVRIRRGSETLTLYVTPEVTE

Variants of B1 are the subject of this test. Particulars: with htra2_mouse Htra2, Q9JIY5.
In the case of D112A;I114A, the “effect of a mutation on the interaction” value is “decreasing interaction”.

The record behind these values is IntAct's records for PubMed 18772386.
